Earlier results on 1 substance are cited in US12128089B2 (Slayback Pharma LLC, priority 2022, dated 2024).

Read-outs that look alike come from different tables or passages of the source. Where only a bound is given, the exact number is not on record here.

The conditions of data set [1]: dilute aqueous solutions, random coil conformation.
Assay in data set [2]: not given
This is another data set of the same source.

For data set [3] the following is noted: neutral aqueous solution.
Assay in data set [4]: not given
The source holds these as a separate data set.

For Glucagon, the “Solubility in aqueous solutions” value reads like this: (pH less than 3 or greater than 9) above 10 mg/mL; (pH range of 4 to 8) below 0.1 mg/mL. Also, the “α-helix at the C-terminal end” value in data set [1] is on record as 15%. Besides, the “Onset of action post injection” value in data set [2] was 5 to 20 min. In addition, the Precipitation after preparation result in data set [3] was “precipitates within an hour of preparation”. In addition, the Half-life in plasma in data set [4] was 3 to 6 min.
